# Source: IntAct's records for PubMed 16709668
# B1: "Peptide-N(4)-(N-acetyl-beta-glucosaminyl)asparagine amidase" (Mus musculus), Q9JI78 (parent)
# chain: MASATLGSSSSSASPAVAELCQNTPETFLEASKLLLTYADNILRNPSDEKYRSIRIGNTAFSTRLLPVRGAVECLFEMGFEEGETHLIFPKKASVEQLQKIRDLIAIERSSRLDGSSKKVQFSQHPAAAKLPLEQSEDPAGLIRHSGNQTGQLPSLPSAPMVVGDSTILKVLQSNIQHVQLYENPVLQEKALTCIPVSELKRKAQEKLFRARKLDKGTNVSDEDFLLLELLHWFKEEFFRWVNNIVCSKCGGETRSRDEALLPNDDELKWGAKNVENHYCDACQLSNRFPRYNNPEKLLETRCGRCGEWANCFTLCCRALGFEARYVWDYTDHVWTEVYSPSQQRWLHCDACEDVCDKPLLYEIGWGKKLSYIIAFSKDEVVDVTWRYSCKHDEVMSRRTKVKEELLRETINGLNKQRQLSLSESRRKELLQRIIVELVEFISPKTPRPGELGGRVSGSLAWRVARGETGLERKEILFIPSENEKISKQFHLRYDIVRDRYIRVSDNNINISGWENGVWKMESIFRKVEKDWNMVYLARKEGSSFAYISWKFECGSAGLKVDTVSIRTSSQSFESGSVRWKLRSETAQVNLLGDKNLRSYNDFSGATEVTLEAELSRGDGDVAWQHTQLFRQSLNDSGENGLEIIITFNDL
# Variants of: B1
# Settings: with tera_mouse Vcp
row,effect of a mutation on the interaction,Variant
1,disrupting interaction,G79A;F80A
2,disrupting interaction,N41P
